Target: SUMO-modified granzyme B
Sequence (chain, as listed by the source): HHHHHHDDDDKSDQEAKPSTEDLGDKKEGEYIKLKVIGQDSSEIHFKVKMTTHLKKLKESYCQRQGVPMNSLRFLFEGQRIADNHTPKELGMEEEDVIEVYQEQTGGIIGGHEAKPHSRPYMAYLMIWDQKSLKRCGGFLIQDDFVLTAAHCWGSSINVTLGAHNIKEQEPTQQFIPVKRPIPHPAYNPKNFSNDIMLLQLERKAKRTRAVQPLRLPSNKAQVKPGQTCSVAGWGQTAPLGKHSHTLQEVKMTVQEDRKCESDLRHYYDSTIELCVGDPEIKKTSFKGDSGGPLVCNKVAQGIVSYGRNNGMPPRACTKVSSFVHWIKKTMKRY

B1: Sentrin-specific protease 1 (SENP1) (protein)
chain: MDDIADRMRMDAGEVTLVNHNSVFKTHLLPQTGFPEDQLSLSDQQILSSRQGHLDRSFTCSTRSAAYNPSYYSDNPSSDSFLGSGDLRTFGQSANGQWRNSTPSSSSSLQKSRNSRSLYLETRKTSSGLSNSFAGKSNHHCHVSAYEKSFPIKPVPSPSWSGSCRRSLLSPKKTQRRHVSTAEETVQEEEREIYRQLLQMVTGKQFTIAKPTTHFPLHLSRCLSSSKNTLKDSLFKNGNSCASQIIGSDTSSSGSASILTNQEQLSHSVYSLSSYTPDVAFGSKDSGTLHHPHHHHSVPHQPDNLAASNTQSEGSDSVILLKVKDSQTPTPSSTFFQAELWIKELTSVYDSRARERLRQIEEQKALALQLQNQRLQEREHSVHDSVELHLRVPLEKEIPVTVVQETQKKGHKLTDSEDEFPEITEEMEKEIKNVFRNGNQDEVLSEAFRLTITRKDIQTLNHLNWLNDEIINFYMNMLMERSKEKGLPSVHAFNTFFFTKLKTAGYQAVKRWTKKVDVFSVDILLVPIHLGVHWCLAVVDFRKKNITYYDSMGGINNEACRILLQYLKQESIDKKRKEFDTNGWQLFSKKSQEIPQQMNGSDCGMFACKYADCITKDRPINFTQQHMPYFRKRMVWEILHRKLL
In the case of B1, the “GrB activity (cleavage of Ac-IEPD-pNA, absorbance at 405 nm) and western blot after co-incubation with Mock-transfected or SENP1-overexpressing HEK lysate” value is reported as “SENP1 activates SUMO-GrB”.

Reference: patent US20210324360
